Experimental findings from patent US20050002935A1 are described below.

The experiment addresses B7-H3 receptor on human CD4+ T cells (human). The experiment can be described thus: cell-based or functional assay.

B1: human B7-H3 VC (expressed on CHO.HLA-DR2 transfectants) (ligand)
chain: LEVQVPEDPVVALVGTDATLCCSFSPEPGFSLAQLNLIWQLTDTKQLVHSFAEGQDQGSAYANRTALFPDLLAQGNASLRLQRVRVADEGSFTCFVSIRDFGSAAVSLQVAAPYSKPSMTLEPNKDLRPGDTVTITCSSYRGYPEAEVFWQDGQGVPLTGNVTTSQMANEQGLFDVHSVLRVVLGANGTYSCLVRNPVLQQDAHGSVTITGQPMTFPPEALWVTVGLSVCLIALLVALAFVCWRKIKQSCEEENAGAEDQDGEGEGSKTALQPLKHSDSKEDDGQEIA
The molecule B1 came in with a GM-CSF level reduced relative to GFP controls (multiplex ELISA, 72 h) of 65%; an IFN-γ level reduced relative to GFP controls (multiplex ELISA, 72 h) of 85%; an IL-10 level reduced relative to GFP controls (multiplex ELISA, 72 h) of 81%; a TNF-α level reduced relative to GFP controls (multiplex ELISA, 72 h) of 69%.

B2: human B7-H3 VCVC (expressed on CHO.HLA-DR2 transfectants) (ligand)
chain: LEVQVPEDPVVALVGTDATLCCSFSPEPGFSLAQLNLIWQLTDTKQLVHSFAEGQDQGSAYANRTALFPDLLAQGNASLRLQRVRVADEGSFTCFVSIRDFGSAAVSLQVAAPYSKPSMTLEPNKDLRPGDTVTITCSSYQGYPEAEVFWQDGQGVPLTGNVTTSQMANEQGLFDVHSILRVVLGANGTYSCLVRNPVLQQDAHSSVTITPQRSPTGAVEVQVPEDPVVALVGTDATLRCSFSPEPGFSLAQLNLIWQLTDTKQLVHSFTEGRDQGSAYANRTALFPDLLAQGNASLRLQRVRVADEGSFTCFVSIRDFGSAAVSLQVAAPYSKPSMTLEPNKDLRPGDTVTITCSSYRGYPEAEVFWQDGQGVPLTGNVTTSQMANEQGLFDVHSVLRVVLGANGTYSCLVRNPVLQQDAHGSVTITGQPMTFPPEALWVTVGLSVCLIALLVALAFVCWRKIKQSCEEENAGAEDQDGEGEGSKTALQPLKHSDSKEDDGQEIA
As to B2, the GM-CSF level reduced relative to GFP controls (multiplex ELISA, 72 h) is 65%; the IFN-γ level reduced relative to GFP controls (multiplex ELISA, 72 h) was determined as 85%; the IL-10 level reduced relative to GFP controls (multiplex ELISA, 72 h) was 81%; the TNF-α level reduced relative to GFP controls (multiplex ELISA, 72 h) stood at 69%.
